In the data set the target is T1, B7H3 on Weri-RB1 cells (UniProt Q5ZPR3).
T1 sequence: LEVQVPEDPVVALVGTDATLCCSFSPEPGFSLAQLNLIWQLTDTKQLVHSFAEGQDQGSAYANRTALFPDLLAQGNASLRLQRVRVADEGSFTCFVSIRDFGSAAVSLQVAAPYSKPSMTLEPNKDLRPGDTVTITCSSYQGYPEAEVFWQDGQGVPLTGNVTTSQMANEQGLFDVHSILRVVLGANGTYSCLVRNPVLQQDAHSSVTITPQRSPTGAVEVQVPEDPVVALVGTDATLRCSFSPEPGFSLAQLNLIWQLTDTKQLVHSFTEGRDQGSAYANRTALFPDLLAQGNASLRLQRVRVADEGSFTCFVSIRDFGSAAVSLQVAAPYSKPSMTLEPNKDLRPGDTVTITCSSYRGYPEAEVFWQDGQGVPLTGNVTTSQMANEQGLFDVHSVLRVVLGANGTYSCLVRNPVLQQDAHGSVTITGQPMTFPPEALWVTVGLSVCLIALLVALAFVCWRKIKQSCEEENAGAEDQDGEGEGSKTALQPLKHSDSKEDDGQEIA
As to the kind of experiment: flow cytometry. Particulars: FITC aptamer, ABB: AWB (composition not given) + 0.1 mg/ml yeast tRNA, 0.1 mg/ml salmon sperm DNA, 5% FBS, 1 mg/ml BSA, 60 min, 0-500 nM …, flow binding assay on ice, d. (In general: In flow cytometry, cells or beads pass a laser one at a time.)
As usually defined, the Kd is the concentration at which binding is half-saturated. “TAGGGAAGAGAAGGACATATGATTGAGAAGTCACGCCACTTACCTGCGCTCAAAACCTCAGAATTGACTAGTACATGACCACTT [VRF-HS_B7H3-05]”: the Kd worked out at 0.0506 µM.
For “TAGGGAAGAGAAGGACATATGATACAGCACGGTATGACGAGTCCATTGTGTGTGCAGCTCGCTAATTGACTAGTACATGACCACTT [VRF-HS_B7H3-01]”, the Kd is 0.0321 µM.
Then “TAGGGAAGAGAAGGACATATGATCGCCCCTCTTTTCGATTTCAAGCTCCTAACCCACACCTCTTTGACTAGTACATGACCACTT [VRF-HS_B7H3-02]”, with 0.0472 µM.
Under “TAGGGAAGAGAAGGACATATGATTGCCCCTGACACTTACACGCCACTATCAAGGCACACGCCATTGACTAGTACATGACCACTT [VRF-HS_B7H3-04]” stands 0.0514 µM; under “TAGGGAAGAGAAGGACATATGATATAAGTGACACATCAATCTCATGCGGATGAACCAGTGCGTTTGACTAGTACATGACCACTT [VRF-HS_B7H3-03]”, 0.0466 µM.
